Data from patent US20240084003A1 (SIMCERE ZAIMING PHARMACEUTICAL, published 2024).

T1: human CD22-ECD-His protein (human, UniProt P20273 20-687)
T1 construct: Made in house in HEK293E; also called hCD22-ECD-His; recombinant human CD22-ECD His protein; not shown: His tag
T1 sequence: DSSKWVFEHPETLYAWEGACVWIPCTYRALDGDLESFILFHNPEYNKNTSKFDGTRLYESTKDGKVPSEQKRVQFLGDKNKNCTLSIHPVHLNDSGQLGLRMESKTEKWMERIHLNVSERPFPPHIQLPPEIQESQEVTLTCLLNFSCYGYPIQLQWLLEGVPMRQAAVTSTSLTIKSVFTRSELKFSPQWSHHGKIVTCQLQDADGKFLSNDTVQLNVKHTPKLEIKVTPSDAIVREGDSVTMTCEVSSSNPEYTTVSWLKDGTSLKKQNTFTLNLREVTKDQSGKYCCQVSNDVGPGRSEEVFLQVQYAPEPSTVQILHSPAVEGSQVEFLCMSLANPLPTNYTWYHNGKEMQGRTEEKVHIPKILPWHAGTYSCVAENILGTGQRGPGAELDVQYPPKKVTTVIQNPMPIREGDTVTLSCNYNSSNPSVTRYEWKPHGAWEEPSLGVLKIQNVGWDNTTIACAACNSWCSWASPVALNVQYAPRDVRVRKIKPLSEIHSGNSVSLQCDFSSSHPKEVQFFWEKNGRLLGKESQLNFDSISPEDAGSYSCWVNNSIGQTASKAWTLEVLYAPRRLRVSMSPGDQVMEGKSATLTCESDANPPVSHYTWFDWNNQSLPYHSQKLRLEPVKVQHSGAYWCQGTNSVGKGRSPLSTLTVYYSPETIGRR

T2: murine CD22 protein (ACROBiosystems, SI2-M52Ha) (murine, UniProt P35329 22-708)
T2 construct: extracellular domain; also called murine CD22-ECD; murine CD22-ECD-His
T2 sequence (looked up): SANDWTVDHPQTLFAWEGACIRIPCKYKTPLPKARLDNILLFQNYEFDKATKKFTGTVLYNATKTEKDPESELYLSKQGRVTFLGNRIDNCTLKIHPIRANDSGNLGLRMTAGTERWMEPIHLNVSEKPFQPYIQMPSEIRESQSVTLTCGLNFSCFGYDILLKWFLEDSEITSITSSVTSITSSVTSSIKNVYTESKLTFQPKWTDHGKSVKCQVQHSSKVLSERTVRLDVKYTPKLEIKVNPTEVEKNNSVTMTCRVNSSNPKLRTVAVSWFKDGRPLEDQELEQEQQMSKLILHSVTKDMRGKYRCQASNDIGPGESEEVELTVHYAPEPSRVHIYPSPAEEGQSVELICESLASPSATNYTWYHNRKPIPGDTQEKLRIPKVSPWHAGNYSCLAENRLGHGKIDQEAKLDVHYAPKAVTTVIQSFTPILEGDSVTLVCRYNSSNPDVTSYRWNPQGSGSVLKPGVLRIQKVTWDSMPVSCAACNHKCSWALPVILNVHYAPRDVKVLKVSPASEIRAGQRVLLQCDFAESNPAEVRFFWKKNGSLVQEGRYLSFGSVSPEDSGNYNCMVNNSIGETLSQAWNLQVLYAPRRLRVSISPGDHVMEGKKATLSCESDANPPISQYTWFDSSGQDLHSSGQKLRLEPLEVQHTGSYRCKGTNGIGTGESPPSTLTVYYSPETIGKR

T3: monkey CD22 protein (ACROBiosystems, SI2-R52Ha) (monkey (rhesus monkey in paragraph 148), UniProt H9G1X2 18-686)
T3 construct: extracellular domain; also called monkey CD22-ECD; monkey CD22-ECD-His
T3 sequence: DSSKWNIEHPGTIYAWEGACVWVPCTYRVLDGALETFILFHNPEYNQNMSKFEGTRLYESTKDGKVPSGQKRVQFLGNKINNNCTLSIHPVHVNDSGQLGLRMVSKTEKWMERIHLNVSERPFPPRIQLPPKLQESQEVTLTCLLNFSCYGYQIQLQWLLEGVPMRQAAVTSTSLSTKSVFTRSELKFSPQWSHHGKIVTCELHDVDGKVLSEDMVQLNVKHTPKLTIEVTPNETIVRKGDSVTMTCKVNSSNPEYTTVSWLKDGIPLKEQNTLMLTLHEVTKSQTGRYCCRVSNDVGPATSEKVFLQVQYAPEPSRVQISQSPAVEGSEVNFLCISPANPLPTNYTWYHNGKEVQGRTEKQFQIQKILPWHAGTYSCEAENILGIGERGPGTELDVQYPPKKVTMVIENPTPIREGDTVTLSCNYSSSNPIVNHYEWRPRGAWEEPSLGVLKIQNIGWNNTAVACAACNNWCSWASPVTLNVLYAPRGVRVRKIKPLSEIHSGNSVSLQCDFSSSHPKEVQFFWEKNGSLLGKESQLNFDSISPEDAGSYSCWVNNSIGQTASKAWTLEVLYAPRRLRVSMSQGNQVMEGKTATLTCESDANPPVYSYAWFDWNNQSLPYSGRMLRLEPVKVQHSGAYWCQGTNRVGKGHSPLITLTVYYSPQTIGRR

T4: human CD22 domain5-7-His (human, UniProt P20273 414-687)
T4 construct: also called hCD22 domain5-7-His; not shown: His tag
T4 sequence: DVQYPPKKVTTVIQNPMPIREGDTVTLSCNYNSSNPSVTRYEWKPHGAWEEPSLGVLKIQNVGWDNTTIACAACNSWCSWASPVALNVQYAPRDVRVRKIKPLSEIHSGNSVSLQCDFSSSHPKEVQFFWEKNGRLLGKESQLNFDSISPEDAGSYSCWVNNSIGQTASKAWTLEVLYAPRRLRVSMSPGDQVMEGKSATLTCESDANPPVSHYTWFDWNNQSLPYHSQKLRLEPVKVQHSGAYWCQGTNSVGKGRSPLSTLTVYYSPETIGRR


Legend:
[1] = molecular target: T1, human CD22-ECD-His protein; test: ELISA, Ab 0.01 nM
Outline: (§1)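 Binding of chimeric anti-CD22 antibodies was detected by indirect ELISA on CD22-ECD-His coated at 2 μg/mL, with HRP secondary and TMB substrate.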

[2] = molecular target: T1, human CD22-ECD-His protein; test: ELISA, Ab 0.10 nM
Outline: as §1

[3] = molecular target: T1, human CD22-ECD-His protein; test: ELISA, Ab 0.001 nM
Outline: as §1

[4] = molecular target: T1, human CD22-ECD-His protein; test: ELISA, Ab 10.00 nM
Outline: as §1

[5] = molecular target: T1, human CD22-ECD-His protein; test: ELISA, Ab 0.0001 nM
Outline: as §1

[6] = molecular target: T1, human CD22-ECD-His protein; test: ELISA, Ab 100.00 nM
Outline: as §1

[7] = molecular target: T1, human CD22-ECD-His protein; test: ELISA, Ab 0.00001 nM
Outline: as §1

[8] = molecular target: T1, human CD22-ECD-His protein; test: ELISA, human CD22-ECD-His coated
Outline: as §1

[9] = molecular target: T2, murine CD22 protein (ACROBiosystems, …); test: ELISA, murine CD22-ECD-His coated
Outline: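 Coat 2 μg/mL CD22 in PBS, overnight 4° C; block PBS/2% BSA 2 h RT. Ab 2 h 37° C; HRP anti-species secondary 2 h 37° C. TMB 30 min RT, stop 1.0 N HCl.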

[10] = molecular target: T3, monkey CD22 protein (ACROBiosystems, …); test: ELISA, monkey CD22-ECD-His coated
Method: In order to detect the binding activity of CD22 human-murine chimeric antibodies to CD22 protein, the purified human CD22-ECD-His protein obtained in Example 2 was diluted with PBS to a final concentration of 2 μg/mL, and then added to 96-well ELISA plate at 100 μl/well. The plate was sealed with plastic film and incubated overnight at 4° C., the plate was washed 2 times with PBS the next day, and then a blocking solution [PBS+2% (w/w) BSA] was added for blocking at room temperature for 2 hours. […] After incubation at 37° C. for 2 hours, the plate was washed 3 times with PBS. HRP (horseradish peroxidase)-labeled secondary antibody (purchased from Sigma, catalog number: A0170) was added, and incubated at 37° C. for 2 hours, and the plate was washed 5 times with PBS. TMB substrate was added at 50 μl/well, and incubated at room temperature for 30 minutes, then a stop solution (1.0 N HCl) was added at 50 μl/well.
In order to detect the species cross-binding activity of the chimeric antibodies, an ELISA plate was coated with commercial murine CD22 protein (ACROBiosystems, catalog number: SI2-M52Ha) and monkey CD22 protein (ACROBiosystems, catalog number: SI2-R52Ha), respectively, and the ELISA detection was performed according to the method in Example 5.1.

human CD22 domain5-7-His = molecular target: T4, human CD22 domain5-7-His; test: ELISA, human CD22 domain5-7-His coated

OD450 [1]	OD450 [2]	OD450 [3]	OD450 [4]	OD450 [5]	OD450 [6]	OD450 [7]	EC50 (read off the curve) [8]	binding result [9]	EC50 (read off the curve) [10]	binding result (human CD22 domain5-7-His)	Binder
1.52 OD450	1.93 OD450	0.65 OD450	1.97 OD450	0.32 OD450	2.32 OD450	0.18 OD450	~0.03 nM	no binding (tested: 100 nM)	0.1 to 1 nM	no binding (tested: 100 nM)	F2.173.9 (antibody, human IgG1, lambda, V domains shown, Human-murine chimeric IgG1, lambda) VH: EVQLVESGGDLVKPGESLKLSCEASGFTFSNYAMSWVRQTPDRRLEWVATISSIGSFTYYSDSVKGRFTISRDNVKSTLHLQMNNLKSGDTAIYFCARLGVYFDSWGQGTTLTVSS VL: QLVLTQSSSASFSLGASAKLTCTLSSQHSTYTIEWYQQQPHKPPKFVMEIKKDGSHYTGDGIPDRFSGSSSGADRYLSISNIQPEDETIYICGVSDMIKDQFVYVFGGGTKVTVLG
2.24 OD450	2.58 OD450	0.86 OD450	2.56 OD450	0.21 OD450	3.07 OD450	0.12 OD450	~0.02 nM	no binding (tested: 100 nM)	~0.02 nM	no binding (tested: 100 nM)	F1.250.16 (antibody, human IgG1, kappa, V domains shown, Human-murine chimeric IgG1, kappa) VH: QVQLQQSGAEQVKPGASVKMSCKASGYTFTTYPIEWMKQNHGESLDWIGNIHPYNDDTEYNEKFKGKATLTVEKSSNTVFLELSRLTSDDSAVYYCVRGDYYNSRYWYFDVWGTGTTVTVSS VL: DIVMTQSQKFMSTTVGDRVSITCKAGQNVRTAVAWYQQKPGQSPKLLIYSASTRYIGVPERFTGSGSGTDFTLTITNMQSEDLADYFCQQYSSFPLTFGTGTKLELKR
2.11 OD450	2.53 OD450	0.74 OD450	2.51 OD450	0.17 OD450	2.87 OD450	0.1 OD450	~0.03 nM	no binding (tested: 100 nM)	~0.03 nM	no binding (tested: 100 nM)	F1.172.13 (antibody, human IgG1, kappa, V domains shown, Human-murine chimeric IgG1, kappa) VH: QVTLKESGPGILQSSQTLSLTCSFSGFSLSTSGMGVSWIRQPSGKGLEWLAHIYWDDDKRYNPSLKSRLTISKDTSRNQVFLKITSVDTADTATYYCARAPPPNWDEYYFDYWGQGTTLTVSS VL: DIQMTQSPASLSASVGETVTITCRASGNIHNSLAWYQQKQGKSPQLLVHNAKTLADGVPSRFSGSGSGTQYSLKINSLQPEDFGSYYCQHFWSTPPFGGGTKLEIKR
